Source: the supplement of paper PMC9112550, “Optimization of the antimicrobial peptide Bac7 by deep mutational scanning” (BMC Biology, 2022)

These sequences were tested on Escherichia coli TOP10 (assay: shrunken log2 fold change of peptide-encoding DNA abundance (4.5 h post-induction vs induction); higher = less antimicrobial activity (less host growth inhibition)). Conditions: time post-induction: 4.5 h; library: site-saturation at positions 5, 18, 19, 20.
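Also: peptides expressed intracellularly from a pBAD plasmid library in pooled LB shake-flask culture, induced with 0.3% L-arabinose, DNA abundance read by NGS, three biological replicates, DESeq2 with apeglm shrinkage.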

Question: For RRIRDRPPRLPRPRPRPDRPPRP, which “shrunken log2 fold change” value is on record?
Answer: -0.251

Question: With RRIRDRPPRLPRPRPRPDRSPRP as the sequence, how does the “shrunken log2 fold change” value read?
Answer: 0.0975

Question: RRIRDRPPRLPRPRPRPDSHPRP was tested. Which “shrunken log2 fold change” value did it give?
Answer: 0.0162

Question: How did the “shrunken log2 fold change” value turn out when RRIRDRPPRLPRPRPRPDSTPRP was run?
Answer: -0.00421

Question: For RRIRDRPPRLPRPRPRPDTMPRP, which “shrunken log2 fold change” value is on record?
Answer: 0.373

Question: Which “shrunken log2 fold change” value does the source give for RRIRDRPPRLPRPRPRPEEYPRP here?
Answer: 0.0208

Question: For RRIRDRPPRLPRPRPRPEFRPRP, which “shrunken log2 fold change” value is on record?
Answer: 0.283

Question: RRIRDRPPRLPRPRPRPEIVPRP was tested. Which “shrunken log2 fold change” value did it give?
Answer: 0.048

Question: For RRIRDRPPRLPRPRPRPELCPRP, which “shrunken log2 fold change” value is on record?
Answer: -0.0337

Question: RRIRDRPPRLPRPRPRPEMQPRP was tested. Which “shrunken log2 fold change” value did it give?
Answer: -0.0247

Question: Which “shrunken log2 fold change” value does the source give for RRIRDRPPRLPRPRPRPEMSPRP here?
Answer: 0.00748

Question: For RRIRDRPPRLPRPRPRPENHPRP, which “shrunken log2 fold change” value is on record?
Answer: -0.0926

Question: How did the “shrunken log2 fold change” value turn out when RRIRDRPPRLPRPRPRPENTPRP was run?
Answer: 0.17

Question: Which “shrunken log2 fold change” value does the source give for RRIRDRPPRLPRPRPRPENYPRP here?
Answer: 0.0528

Question: For RRIRDRPPRLPRPRPRPEPDPRP, which “shrunken log2 fold change” value is on record?
Answer: 1.33

Question: RRIRDRPPRLPRPRPRPEPFPRP was tested. Which “shrunken log2 fold change” value did it give?
Answer: -0.137

Question: Which “shrunken log2 fold change” value does the source give for RRIRDRPPRLPRPRPRPEQHPRP here?
Answer: 0.465

Question: Which “shrunken log2 fold change” value does the source give for RRIRDRPPRLPRPRPRPEQKPRP here?
Answer: 0.0533

Question: How did the “shrunken log2 fold change” value turn out when RRIRDRPPRLPRPRPRPERAPRP was run?
Answer: 0.0972

Question: Which “shrunken log2 fold change” value does the source give for RRIRDRPPRLPRPRPRPERGPRP here?
Answer: 0.689

Question: RRIRDRPPRLPRPRPRPERRPRP was tested. Which “shrunken log2 fold change” value did it give?
Answer: 0.0137

Question: With RRIRDRPPRLPRPRPRPESQPRP as the sequence, how does the “shrunken log2 fold change” value read?
Answer: -0.0206

Question: With RRIRDRPPRLPRPRPRPETQPRP as the sequence, how does the “shrunken log2 fold change” value read?
Answer: 0.476

Question: With RRIRDRPPRLPRPRPRPETWPRP as the sequence, how does the “shrunken log2 fold change” value read?
Answer: 0.0111

Question: With RRIRDRPPRLPRPRPRPEVLPRP as the sequence, how does the “shrunken log2 fold change” value read?
Answer: 1.14

Question: How did the “shrunken log2 fold change” value turn out when RRIRDRPPRLPRPRPRPEWCPRP was run?
Answer: 0.272

Question: How did the “shrunken log2 fold change” value turn out when RRIRDRPPRLPRPRPRPEWHPRP was run?
Answer: 0.623

Question: With RRIRDRPPRLPRPRPRPEWPPRP as the sequence, how does the “shrunken log2 fold change” value read?
Answer: 0.209

Question: For RRIRDRPPRLPRPRPRPFCFPRP, which “shrunken log2 fold change” value is on record?
Answer: 0.265

Question: RRIRDRPPRLPRPRPRPFCPPRP was tested. Which “shrunken log2 fold change” value did it give?
Answer: -0.277

Question: RRIRDRPPRLPRPRPRPFFRPRP was tested. Which “shrunken log2 fold change” value did it give?
Answer: -0.0152

Question: Which “shrunken log2 fold change” value does the source give for RRIRDRPPRLPRPRPRPFGYPRP here?
Answer: -0.342

Question: Which “shrunken log2 fold change” value does the source give for RRIRDRPPRLPRPRPRPFHEPRP here?
Answer: -0.048

Question: For RRIRDRPPRLPRPRPRPFIDPRP, which “shrunken log2 fold change” value is on record?
Answer: 0.168

Question: With RRIRDRPPRLPRPRPRPFLHPRP as the sequence, how does the “shrunken log2 fold change” value read?
Answer: 0.204

Question: For RRIRDRPPRLPRPRPRPFLNPRP, which “shrunken log2 fold change” value is on record?
Answer: -0.243

Question: For RRIRDRPPRLPRPRPRPFNLPRP, which “shrunken log2 fold change” value is on record?
Answer: -0.176

Question: RRIRDRPPRLPRPRPRPFRNPRP was tested. Which “shrunken log2 fold change” value did it give?
Answer: -0.0013

Question: Which “shrunken log2 fold change” value does the source give for RRIRDRPPRLPRPRPRPFTDPRP here?
Answer: 0.00624

Question: Which “shrunken log2 fold change” value does the source give for RRIRDRPPRLPRPRPRPFVEPRP here?
Answer: -0.0362

Question: RRIRDRPPRLPRPRPRPFVIPRP was tested. Which “shrunken log2 fold change” value did it give?
Answer: 0.129

Question: With RRIRDRPPRLPRPRPRPFWEPRP as the sequence, how does the “shrunken log2 fold change” value read?
Answer: 0.272

Question: With RRIRDRPPRLPRPRPRPFYAPRP as the sequence, how does the “shrunken log2 fold change” value read?
Answer: -0.439

Question: How did the “shrunken log2 fold change” value turn out when RRIRDRPPRLPRPRPRPGAVPRP was run?
Answer: 0.614

Question: For RRIRDRPPRLPRPRPRPGCCPRP, which “shrunken log2 fold change” value is on record?
Answer: 0.617

Question: For RRIRDRPPRLPRPRPRPGFKPRP, which “shrunken log2 fold change” value is on record?
Answer: 0.0624

Question: With RRIRDRPPRLPRPRPRPGFNPRP as the sequence, how does the “shrunken log2 fold change” value read?
Answer: 0.125

Question: RRIRDRPPRLPRPRPRPGFPPRP was tested. Which “shrunken log2 fold change” value did it give?
Answer: 0.0346

Question: With RRIRDRPPRLPRPRPRPGGDPRP as the sequence, how does the “shrunken log2 fold change” value read?
Answer: 0.908

Question: For RRIRDRPPRLPRPRPRPGGFPRP, which “shrunken log2 fold change” value is on record?
Answer: 0.134

Question: Which “shrunken log2 fold change” value does the source give for RRIRDRPPRLPRPRPRPGGKPRP here?
Answer: -0.0179

Question: For RRIRDRPPRLPRPRPRPGGYPRP, which “shrunken log2 fold change” value is on record?
Answer: 0.101

Question: For RRIRDRPPRLPRPRPRPGHLPRP, which “shrunken log2 fold change” value is on record?
Answer: -0.000122

Question: For RRIRDRPPRLPRPRPRPGIFPRP, which “shrunken log2 fold change” value is on record?
Answer: 0.0908

Question: For RRIRDRPPRLPRPRPRPGKPPRP, which “shrunken log2 fold change” value is on record?
Answer: 0.0599

Question: Which “shrunken log2 fold change” value does the source give for RRIRDRPPRLPRPRPRPGLAPRP here?
Answer: 0.565

Question: How did the “shrunken log2 fold change” value turn out when RRIRDRPPRLPRPRPRPGLLPRP was run?
Answer: 0.16

Question: With RRIRDRPPRLPRPRPRPGLNPRP as the sequence, how does the “shrunken log2 fold change” value read?
Answer: 0.184

Question: RRIRDRPPRLPRPRPRPGLWPRP was tested. Which “shrunken log2 fold change” value did it give?
Answer: 1.37

Question: How did the “shrunken log2 fold change” value turn out when RRIRDRPPRLPRPRPRPGMQPRP was run?
Answer: 0.165

Question: Which “shrunken log2 fold change” value does the source give for RRIRDRPPRLPRPRPRPGMYPRP here?
Answer: -0.00172

Question: With RRIRDRPPRLPRPRPRPGNIPRP as the sequence, how does the “shrunken log2 fold change” value read?
Answer: -0.0319

Question: With RRIRDRPPRLPRPRPRPGNVPRP as the sequence, how does the “shrunken log2 fold change” value read?
Answer: -0.0882

Question: RRIRDRPPRLPRPRPRPGPCPRP was tested. Which “shrunken log2 fold change” value did it give?
Answer: 0.244

Question: How did the “shrunken log2 fold change” value turn out when RRIRDRPPRLPRPRPRPGPDPRP was run?
Answer: 0.217

Question: With RRIRDRPPRLPRPRPRPGQMPRP as the sequence, how does the “shrunken log2 fold change” value read?
Answer: -0.0138

Question: With RRIRDRPPRLPRPRPRPGQYPRP as the sequence, how does the “shrunken log2 fold change” value read?
Answer: -0.0267

Question: Which “shrunken log2 fold change” value does the source give for RRIRDRPPRLPRPRPRPGRCPRP here?
Answer: 0.53

Question: With RRIRDRPPRLPRPRPRPGREPRP as the sequence, how does the “shrunken log2 fold change” value read?
Answer: 0.603

Question: RRIRDRPPRLPRPRPRPGRMPRP was tested. Which “shrunken log2 fold change” value did it give?
Answer: 0.174

Question: RRIRDRPPRLPRPRPRPGSGPRP was tested. Which “shrunken log2 fold change” value did it give?
Answer: 0.499

Question: How did the “shrunken log2 fold change” value turn out when RRIRDRPPRLPRPRPRPGVTPRP was run?
Answer: 0.596

Question: How did the “shrunken log2 fold change” value turn out when RRIRDRPPRLPRPRPRPGYDPRP was run?
Answer: 0.0286

Question: For RRIRDRPPRLPRPRPRPGYKPRP, which “shrunken log2 fold change” value is on record?
Answer: -0.121

Question: Which “shrunken log2 fold change” value does the source give for RRIRDRPPRLPRPRPRPGYTPRP here?
Answer: -0.127
